# Target: Clostridium difficile toxin B (Clostridium difficile) (UniProt P18177)
# Assay: cell-based or functional assay
# Chain of Clostridium difficile toxin B (Clostridium difficile) (P18177 2-2366 limits assumed): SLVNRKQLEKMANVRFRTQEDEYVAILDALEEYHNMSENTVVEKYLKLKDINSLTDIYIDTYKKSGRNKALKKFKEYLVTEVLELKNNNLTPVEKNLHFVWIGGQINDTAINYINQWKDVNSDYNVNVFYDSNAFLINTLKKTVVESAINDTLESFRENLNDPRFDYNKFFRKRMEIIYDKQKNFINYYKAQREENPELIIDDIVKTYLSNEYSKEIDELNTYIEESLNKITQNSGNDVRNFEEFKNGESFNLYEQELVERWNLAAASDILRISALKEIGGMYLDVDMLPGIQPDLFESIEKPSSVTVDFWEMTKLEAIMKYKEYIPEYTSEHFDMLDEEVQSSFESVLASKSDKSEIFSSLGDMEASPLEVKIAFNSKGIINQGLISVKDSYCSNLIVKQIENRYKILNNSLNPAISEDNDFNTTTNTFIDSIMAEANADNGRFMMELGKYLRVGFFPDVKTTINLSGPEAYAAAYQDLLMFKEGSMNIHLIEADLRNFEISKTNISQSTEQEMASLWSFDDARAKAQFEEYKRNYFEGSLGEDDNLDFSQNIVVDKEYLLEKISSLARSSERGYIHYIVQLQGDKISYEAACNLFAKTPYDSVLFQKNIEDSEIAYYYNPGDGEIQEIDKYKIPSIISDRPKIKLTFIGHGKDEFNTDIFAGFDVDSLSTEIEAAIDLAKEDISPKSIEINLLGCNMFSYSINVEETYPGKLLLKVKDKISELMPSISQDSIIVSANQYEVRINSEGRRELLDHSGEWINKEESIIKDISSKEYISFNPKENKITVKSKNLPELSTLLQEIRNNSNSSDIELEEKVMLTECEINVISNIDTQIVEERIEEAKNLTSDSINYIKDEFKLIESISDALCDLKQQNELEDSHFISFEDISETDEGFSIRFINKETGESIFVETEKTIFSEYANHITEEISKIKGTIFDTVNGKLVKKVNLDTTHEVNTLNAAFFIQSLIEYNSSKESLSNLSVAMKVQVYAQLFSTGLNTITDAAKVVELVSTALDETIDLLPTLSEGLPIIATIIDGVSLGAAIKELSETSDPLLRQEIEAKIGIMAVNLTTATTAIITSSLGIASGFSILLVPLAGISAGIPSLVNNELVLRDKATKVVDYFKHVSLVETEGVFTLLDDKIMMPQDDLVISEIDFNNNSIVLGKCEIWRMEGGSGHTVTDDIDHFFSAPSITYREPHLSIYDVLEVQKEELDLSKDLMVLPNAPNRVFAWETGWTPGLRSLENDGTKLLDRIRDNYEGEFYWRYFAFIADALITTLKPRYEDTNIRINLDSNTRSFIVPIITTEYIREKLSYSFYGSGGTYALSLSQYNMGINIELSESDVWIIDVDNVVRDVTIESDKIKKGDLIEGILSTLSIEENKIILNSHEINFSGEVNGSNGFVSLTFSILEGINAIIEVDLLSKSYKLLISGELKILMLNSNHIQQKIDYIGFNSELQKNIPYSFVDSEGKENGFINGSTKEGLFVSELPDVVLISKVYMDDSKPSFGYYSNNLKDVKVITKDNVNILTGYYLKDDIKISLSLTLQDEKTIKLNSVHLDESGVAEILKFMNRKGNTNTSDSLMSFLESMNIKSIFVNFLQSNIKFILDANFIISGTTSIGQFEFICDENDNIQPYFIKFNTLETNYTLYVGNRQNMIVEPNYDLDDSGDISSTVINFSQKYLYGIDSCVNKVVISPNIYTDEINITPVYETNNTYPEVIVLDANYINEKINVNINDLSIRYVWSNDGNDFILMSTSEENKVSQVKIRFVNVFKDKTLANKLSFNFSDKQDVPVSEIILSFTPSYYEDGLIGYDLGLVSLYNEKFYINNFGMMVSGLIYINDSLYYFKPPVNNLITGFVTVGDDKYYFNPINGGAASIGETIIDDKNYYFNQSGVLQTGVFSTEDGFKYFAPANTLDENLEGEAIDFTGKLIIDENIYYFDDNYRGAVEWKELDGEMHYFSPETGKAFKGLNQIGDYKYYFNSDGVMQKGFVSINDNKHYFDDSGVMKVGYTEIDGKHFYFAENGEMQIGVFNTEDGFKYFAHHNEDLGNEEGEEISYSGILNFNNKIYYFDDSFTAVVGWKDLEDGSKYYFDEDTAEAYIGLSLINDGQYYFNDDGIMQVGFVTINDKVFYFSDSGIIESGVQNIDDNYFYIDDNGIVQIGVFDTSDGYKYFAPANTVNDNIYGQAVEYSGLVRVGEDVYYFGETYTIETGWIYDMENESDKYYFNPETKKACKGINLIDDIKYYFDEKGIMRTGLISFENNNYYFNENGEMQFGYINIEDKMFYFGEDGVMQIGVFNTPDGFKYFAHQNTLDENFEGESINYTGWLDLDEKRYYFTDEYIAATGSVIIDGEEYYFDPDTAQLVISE
substance,measurement,value
MDX1388 (antibody),"neutralizing activity (EC50 value), rounding of toxin B-exposed IMR-90 cells",< 0.1 µg/mL

# Reference: US20150259402A1
